# Laboratory results reported in patent US20260234223A1 (LEYDEN LABORATORIES B V, published 2026).
# T1: human coronavirus NL63 Spike antigen (human coronavirus NL63, UniProt Q6Q1S2 19-1291)
# T1 sequence: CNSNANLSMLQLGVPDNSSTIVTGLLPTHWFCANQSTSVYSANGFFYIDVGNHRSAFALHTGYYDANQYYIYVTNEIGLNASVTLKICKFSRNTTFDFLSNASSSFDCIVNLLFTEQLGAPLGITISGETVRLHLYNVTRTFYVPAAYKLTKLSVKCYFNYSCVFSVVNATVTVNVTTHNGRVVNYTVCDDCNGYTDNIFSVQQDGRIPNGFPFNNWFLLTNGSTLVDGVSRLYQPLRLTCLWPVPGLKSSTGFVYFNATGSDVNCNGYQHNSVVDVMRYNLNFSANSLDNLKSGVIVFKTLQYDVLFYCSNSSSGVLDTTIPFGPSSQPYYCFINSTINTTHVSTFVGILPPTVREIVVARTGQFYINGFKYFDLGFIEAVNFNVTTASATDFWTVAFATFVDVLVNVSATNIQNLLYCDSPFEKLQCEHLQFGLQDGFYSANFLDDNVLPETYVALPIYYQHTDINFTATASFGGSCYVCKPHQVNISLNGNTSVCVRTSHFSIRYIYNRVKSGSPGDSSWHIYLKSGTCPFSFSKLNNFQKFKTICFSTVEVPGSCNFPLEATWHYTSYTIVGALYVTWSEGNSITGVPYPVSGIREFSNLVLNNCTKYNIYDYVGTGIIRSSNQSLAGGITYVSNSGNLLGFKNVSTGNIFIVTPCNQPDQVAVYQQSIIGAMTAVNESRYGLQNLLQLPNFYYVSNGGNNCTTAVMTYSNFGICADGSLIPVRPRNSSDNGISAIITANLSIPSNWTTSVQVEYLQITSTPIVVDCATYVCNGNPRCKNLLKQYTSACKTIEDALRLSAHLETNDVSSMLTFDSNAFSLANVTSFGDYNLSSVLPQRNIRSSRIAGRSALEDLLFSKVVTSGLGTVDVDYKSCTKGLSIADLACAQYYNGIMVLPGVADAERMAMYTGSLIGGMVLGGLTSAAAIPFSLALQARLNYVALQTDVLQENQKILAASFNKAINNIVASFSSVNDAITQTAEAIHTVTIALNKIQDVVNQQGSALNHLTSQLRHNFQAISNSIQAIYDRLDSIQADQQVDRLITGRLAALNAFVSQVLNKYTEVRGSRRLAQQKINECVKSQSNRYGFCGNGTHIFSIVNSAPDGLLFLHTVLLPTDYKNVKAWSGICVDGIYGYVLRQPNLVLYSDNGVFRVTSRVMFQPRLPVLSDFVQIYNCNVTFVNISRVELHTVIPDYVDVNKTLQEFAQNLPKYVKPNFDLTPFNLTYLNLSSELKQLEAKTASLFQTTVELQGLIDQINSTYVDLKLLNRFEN
# T2: hCoV-229E Spike antigen (human coronavirus 229E, UniProt P15423 16-1110)
# T2 sequence: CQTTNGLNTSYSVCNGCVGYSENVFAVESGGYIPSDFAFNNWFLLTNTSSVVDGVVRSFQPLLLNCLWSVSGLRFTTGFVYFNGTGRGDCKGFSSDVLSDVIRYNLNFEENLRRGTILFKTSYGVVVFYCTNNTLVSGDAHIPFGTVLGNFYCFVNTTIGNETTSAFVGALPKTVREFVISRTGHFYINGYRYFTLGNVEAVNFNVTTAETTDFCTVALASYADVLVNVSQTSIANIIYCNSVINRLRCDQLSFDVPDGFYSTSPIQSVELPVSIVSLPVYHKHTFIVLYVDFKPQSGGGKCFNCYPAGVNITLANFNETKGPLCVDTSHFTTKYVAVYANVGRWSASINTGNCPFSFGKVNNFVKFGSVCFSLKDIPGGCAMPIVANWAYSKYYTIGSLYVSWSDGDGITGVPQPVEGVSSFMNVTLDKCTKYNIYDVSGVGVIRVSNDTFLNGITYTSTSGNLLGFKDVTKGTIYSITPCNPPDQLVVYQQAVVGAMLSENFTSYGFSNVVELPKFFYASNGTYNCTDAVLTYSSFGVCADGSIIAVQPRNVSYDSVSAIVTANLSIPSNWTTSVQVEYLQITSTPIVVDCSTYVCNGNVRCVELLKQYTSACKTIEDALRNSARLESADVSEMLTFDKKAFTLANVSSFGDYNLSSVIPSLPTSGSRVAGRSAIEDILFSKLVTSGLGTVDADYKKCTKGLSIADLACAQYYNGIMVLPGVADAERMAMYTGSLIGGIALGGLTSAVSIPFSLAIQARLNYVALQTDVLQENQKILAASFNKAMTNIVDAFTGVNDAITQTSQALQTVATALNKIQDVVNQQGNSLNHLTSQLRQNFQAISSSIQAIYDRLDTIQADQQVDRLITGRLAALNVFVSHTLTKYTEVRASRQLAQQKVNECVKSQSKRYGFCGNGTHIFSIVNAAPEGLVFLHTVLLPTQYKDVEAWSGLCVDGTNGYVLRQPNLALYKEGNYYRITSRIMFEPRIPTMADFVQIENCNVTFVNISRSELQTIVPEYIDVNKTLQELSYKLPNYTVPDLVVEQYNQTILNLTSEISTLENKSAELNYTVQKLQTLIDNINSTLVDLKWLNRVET
# T3: MERS-CoV Spike antigen (MERS-CoV, UniProt K9N5Q8 18-1291)
# T3 sequence: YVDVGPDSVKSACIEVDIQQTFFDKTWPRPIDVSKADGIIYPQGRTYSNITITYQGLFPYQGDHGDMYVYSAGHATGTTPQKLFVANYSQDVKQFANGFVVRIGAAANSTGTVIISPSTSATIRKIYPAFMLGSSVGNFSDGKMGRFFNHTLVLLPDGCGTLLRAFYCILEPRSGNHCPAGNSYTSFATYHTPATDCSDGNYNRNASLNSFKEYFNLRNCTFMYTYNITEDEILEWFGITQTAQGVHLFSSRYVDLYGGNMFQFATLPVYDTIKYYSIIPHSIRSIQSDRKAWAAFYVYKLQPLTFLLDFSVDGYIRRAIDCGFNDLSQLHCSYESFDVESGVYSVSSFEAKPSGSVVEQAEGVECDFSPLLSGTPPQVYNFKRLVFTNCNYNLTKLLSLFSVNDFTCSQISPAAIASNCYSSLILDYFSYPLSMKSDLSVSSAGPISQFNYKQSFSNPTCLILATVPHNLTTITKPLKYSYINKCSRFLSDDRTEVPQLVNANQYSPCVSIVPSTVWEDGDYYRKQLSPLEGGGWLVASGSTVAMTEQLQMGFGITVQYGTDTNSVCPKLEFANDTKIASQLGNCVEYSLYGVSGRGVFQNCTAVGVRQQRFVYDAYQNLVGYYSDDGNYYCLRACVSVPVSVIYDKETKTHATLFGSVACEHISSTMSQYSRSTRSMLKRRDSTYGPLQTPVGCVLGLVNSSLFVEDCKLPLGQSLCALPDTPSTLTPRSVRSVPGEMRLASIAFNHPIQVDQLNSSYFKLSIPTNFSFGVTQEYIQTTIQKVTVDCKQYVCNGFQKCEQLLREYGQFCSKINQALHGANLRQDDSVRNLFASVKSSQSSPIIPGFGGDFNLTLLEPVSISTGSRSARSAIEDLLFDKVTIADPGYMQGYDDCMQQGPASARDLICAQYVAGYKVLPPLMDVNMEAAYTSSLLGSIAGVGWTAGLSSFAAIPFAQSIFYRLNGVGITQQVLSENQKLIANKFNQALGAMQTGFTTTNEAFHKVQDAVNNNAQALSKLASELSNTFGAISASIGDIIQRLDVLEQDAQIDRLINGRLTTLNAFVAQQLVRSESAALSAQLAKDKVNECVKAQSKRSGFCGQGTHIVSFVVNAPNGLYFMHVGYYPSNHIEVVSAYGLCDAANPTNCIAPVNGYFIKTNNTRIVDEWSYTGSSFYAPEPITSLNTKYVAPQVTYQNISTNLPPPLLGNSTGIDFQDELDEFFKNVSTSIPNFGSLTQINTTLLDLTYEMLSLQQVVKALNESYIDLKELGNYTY
# B1: COV30-14 (antibody, V domains shown)
# VH: QVQLVQSGAEVKKPGASVKVSCQTSGYTFTSYYMHWVRQAPGQGLEWMGLITPSGDDTYYAQRFQGRVTMTRDTSTSPTYMELSSLTSEDTAVYYCAKMSRAGGFDVWGQGTLVTVSS
# VL: EVVLTQSPGTLSLSPGERATLSCRASQSITGRYLAWYQQKPGQAPRLLMYGESSRVTGIPDRFSGGGSGTDFTLTISRLEPEDFAVYYCQHFASSPPTYTFGQGTKLEIR
# notes: also called the antibody according to the invention; the antibody according to invention
# What was measured:
# [1] = molecular target: T1, human coronavirus NL63 Spike antigen; test: cell-based or functional assay
# SARS-CoV-1 Spike antigen [2] = molecular target: T4, SARS-CoV-1 Spike antigen (SARS-CoV-1, UniProt P59594 14-1190); test: cell-based or functional assay
# [3] = molecular target: T5, SARS-CoV-2 Spike antigen (Wuhan, wildtype) (SARS-CoV-2 (Wuhan), UniProt P0DTC2 14-1208); test: cell-based or functional assay
# hCoV-229E Spike antigen [4] = molecular target: T2, hCoV-229E Spike antigen; test: cell-based or functional assay
# [5] = molecular target: T1, human coronavirus NL63 Spike antigen; test: ELISA on coated spike antigen
# hCoV-229E Spike antigen [6] = molecular target: T2, hCoV-229E Spike antigen; test: MSD multiplex binding assay, Coronavirus Panel 3
# MERS-CoV Spike antigen = molecular target: T3, MERS-CoV Spike antigen; test: cell-based or functional assay
# SARS-CoV-1 Spike antigen [7] = molecular target: T4, SARS-CoV-1 Spike antigen; test: cell-based or functional assay; remark: listed apart in the source
# [8] = molecular target: T5, SARS-CoV-2 Spike antigen (Wuhan, …); test: cell-based or functional assay; remark: listed apart in the source
binder,measurement,setting,value
B1,Pseudovirion neutralization IC50,[1],> 250 µg/mL
same,Pseudovirion neutralization IC50 (geometric mean),SARS-CoV-1 Spike antigen [2],5.89 µg/mL
same,Pseudovirion neutralization IC50 (geometric mean),[3],0.211 µg/mL
same,Pseudovirion neutralization IC50,hCoV-229E Spike antigen [4],> 250 µg/mL
same,binding result,[5],no binding (tested: range tested 10.0-0.000002 nM)
same,binding result,hCoV-229E Spike antigen [6],no binding (tested: dilution range starting from 555 ng/ml)
same,Live virus neutralization IC50,MERS-CoV Spike antigen,3.68 µg/mL
same,Live virus neutralization IC50,SARS-CoV-1 Spike antigen [7],4.95 µg/mL
same,Live virus neutralization IC50,[8],25.4 µg/mL
